The values below come from patent US20260231954A1, “PESTICIDAL ENZYMES FOR USE ON NEMATODES, INSECTS, AND MOLLUSKS” (priority 2023, published 2026).

For assay [1], the system named is soybean cyst nematode (SCN, Heterodera glycines). The assay is described as follows: Soybean cyst nematode reproduction on soybean after seed treatment, controlled environment (cysts per gram of root tissue or per plant). The assay is classed as in vivo.
In assay [2] the test system is SCN juveniles (SCN HG type 1.2.5.7, race 2). The assay is described as follows: In-vitro plate assay of SCN juvenile viability (difference in percent death). In kind it is in vivo. The procedure: (§1) SCN eggs were obtained from SCN HG type 1.2.5.7, race 2. Eggs were rinsed 4 times with sterile water. Eggs were transferred to a 6-well plate and resuspended in 5 mL of 3 mM ZnSO4. The plate was sealed with parafilm, covered with aluminum foil to prevent light from entering the plate, and placed in a plate growth chamber at 25° C. and 80% relative humidity. After 6-7 days of incubation, an estimate of hatched SCN juveniles was obtained from the well to determine the overall number of juveniles per 10 μL. The concentration of the hatchery solution was adjusted until it consisted of 20-30 juveniles per 10 μL.
Potato dextrose agar media containing chloramphenicol and chlortetracycline was prepared and added to sterile twenty-four-well cell culture plates (1 mL per well). The plates were divided according to the pre-determined N-value for each treatment (N=12-24). Each treatment being tested was added to the agar surface within each well at a rate of 40 μL per well. Without allowing the treatments to dry, 10 μL of the prepared nematode mixture was added to the agar surface within each well.
To quantify the treatments' effects on nematode viability, the nematodes were examined under a dissecting microscope at 20× magnification. Initial (TO) values for the number of live juveniles, number of dead juveniles and total number of juveniles were recorded immediately after preparation of each well. The plates were then wrapped in parafilm around the open edge, encased in aluminum foil, and placed in secondary containment. The secondary containment was placed in a plant growth chamber at 25° C. and 80% relative humidity. At approximately 24 hours post addition of juveniles, the plates were evaluated, and the number of live juveniles, dead juveniles and total number of juveniles were recorded (T24).
The difference in percent death at T0 vs T24 was calculated by subtracting the percent dead at TO [(#dead juveniles/total #juveniles)×100] from the percent dead at T24 [(#dead juveniles/#total juveniles originally present)×100]. […] If the ANOVA indicated a significant difference existed among treatments, Tukey's HSD post hoc test was used to perform a pairwise contrast between each set of treatments. Different letters denote statistically significant results at P<0.05.
as §1, with “from” for “from SCN”, “rinsed four” for “rinsed 4”, “and 80-90%” for “and 80%”, “from each” for “from the”
Potato dextrose agar media containing chloramphenicol and chlortetracycline was prepared and added to sterile twenty-four-well cell culture plates (1 mL per well). The plates were divided according to the pre-determined N-value for each treatment (N=24). […]
To quantify the treatments' effects on nematode viability, the nematodes were examined under a dissecting microscope at 20× magnification. Initial (TO) values for the number of live juveniles, number of dead juveniles and total number of juveniles were recorded. […]

The subject of assay [3] is soybean cyst nematode (SCN). The assay is described as follows: SCN reproduction after application of enzyme or recombinant strain to soil. In kind it is in vivo, Heterodera glycines. Conditions: Table 34; for % Comparison to Control (figure in parentheses): change vs water control; for % Comparison to Control: first figure, water control = 100%; for Average cysts per g of root tissue: free enzyme 0.5 mL/plant to soil, soybean 2830E3, 3 weeks. How it is done: To determine the efficacy of nematicidal enzymes applied to soil, a controlled environment trial was performed with 7-day old soybean plants (variety 2830E3) grown in pots. Enzymes were produced as described in Example 2. Prior to inoculation, 0.5 mL of neutral protease (SEQ ID NO: 127), esterase B (SEQ ID NO: 89), or chitinase 19F (SEQ ID NO: 182) free enzyme solution was applied to the soil around the base of each plant, or 0.5 mL of water was applied for the control (30 plants per treatment). Then, hatched SCN juveniles were applied to the soil around each plant as described in Example 2, and three weeks later, cysts per gram of root tissue was determined as described in Example 2. The data was analyzed as in Example 2 and appears in Tables 33 and 34.
To determine the efficacy of recombinant strains applied to soil, a controlled environment trial was performed as described in Example 18 above (Reduction of soybean cyst nematode reproduction by enzymes applied to soil), with the exception that a recombinant strain expressing neutral protease (SEQ ID NO: 127) was applied instead of a free enzyme solution. The recombinant strain was produced as in Example 3, and the treatment applied to soil as a whole cell broth.

Assay [4] deals with Fall armyworm (Spodoptera frugiperda). Kind of assay: Diet-surface overlay (DSO) bioassay on Fall armyworm. In kind it is in vivo. Conditions: for Larva Stage I / Larva Stage II / Larva Stage III / Larva Stage IV / Dead Larva: Fall armyworm. The procedure:
Diet-surface overlay bioassays are conducted with artificial diet mixes without antibiotics in 1.5 cm^2 cell bioassay trays(s). Artificial diets are commercially available from Southland Products Inc. Diets were prepared by dispersing 0.5 mL of molten diet to each 1.5 cm^2 cell. After solidification, 0.1 mL enzyme treatments were dispersed on top of diet in each cell and the tray was gently rocked in an orbital shaker to spread the liquid uniformly over the diet surface. Trays were placed under clean airflow until the surface of each cell was uniformly dried. One or two 16-cell sections were used per treatment (the number in larvae treated was 16 or 32).
One healthy first instar larva was placed into each treatment cell, each 16-cell section was covered with a re-sealable lid and incubated at 27° C. and light-dark period of 16:8 hrs. After 7 days, and according to the species, the number of individuals in the following developmental categories was recorded.
Negative/untreated controls were treated with filtered water and positive controls were treated with lethal doses of Bacillus thuringiensis subsp. Kurstaki (Btk) spores at 1000 ppm.

[5] abbreviates: Table 11, free enzyme seed treatment 2 fl. oz. per unit of seed (ILEVO 0.15 mg active ingredient per seed), soybean P18A98X, 3 weeks after inoculation.
[6] abbreviates: Table 48, chitinases, number of individuals of n = 32, DSO bioassay.
Setting [7] is: Table 50, esterases, number of individuals of n = 32.

B1: Chitinase 19F (SEQ ID NO: 182): Streptomyces coelicolor Chitinase F (Chi19F) (protein)
chain: ASCSSYHAWSADANYNTGDIVRYTDGKAYIAEHANPGYDPLISTWYWDPYACDGGSQTPVGNFVVSEAQFNQMFPGRNSFYTYSGLTAALSAYPGFANTGSDTTKKQEAAAFLANVSHETGGLVYIVEQNTANYPHYCDWNQPYGCPAGQAAYYGRGPIQLSWNFNYKAAGDALGIDLLGNPWLVQNDAAVAWKTGLWYWNTQSGPGTMTPHNAMVNGAGFGQTIRSINGSLECDGKNPAQVQSRVTKYQQFAQILGVSPGGNLYC
modifications: Chitinase F (Chi19F); Streptomyces coelicolor
For B1, in assay [1] (setting [5]), the “Average cysts per g of root tissue” value is recorded as 48.8 cysts per g of root tissue. Also, the “Average cysts per g of root tissue” value in assay [1] (Table 12, free enzyme seed treatment 2 fl. oz. per unit of seed (ILEVO 0.15 mg active ingredient per seed), soybean P18A98X) was 296.9 cysts per g of root tissue. For the same molecule, the “Difference in Percent Death of Nematodes for 0 to 24 Hours” value in assay [2] (Table 32, 40 μL per well of each treatment, water only 4%) is 24%. In assay [3], the “% Comparison to Control (figure in parentheses)” value is recorded as −32%, the “% Comparison to Control” value is “reduced SCN reproduction” and the “Average cysts per g of root tissue” value is listed as 95.6 cysts per g of root tissue. In addition, in assay [3] (listed as Chitinase 19F free enzyme (SEQ ID NO: 182)), the “% Comparison to Control” value is given as 68%. Besides, in assay [4] (setting [6]), the “Larva Stage I” value is recorded as 4, the “Larva Stage II” value was 14, the “Larva Stage III” value worked out at 5 and the “Larva Stage IV” value is recorded as 6. Further, the “Dead Larva” value in assay [4] (Table 48, chitinases, number of individuals of n = 32, DSO bioassay, dose per treatment in mU/mL Diet) was 3.

B2: Esterase B (SEQ ID NO: 89): Bacillus subtilis Esterase (EstB without signal sequence) (protein, listed as Bacillus subtilis)
chain: ESVHNPVVLVHGISGASYNFFAIKNYLISQGWQSNKLYAIDFYDKTGNNLNNGPQLASYVDRVLKETGAKKVDIVAHSMGGANTLYYIKYLGGGNKIQNVVTLGGANGLVSSTALPGTDPNQKILYTSIYSLNDQIVINSLSRLQGARNIQLYGIGHIGLLSNSQVNGYIKEGLNGGGLNTN
modifications: Esterase (EstB H191 without signal sequence)
B2: the “Average cysts per g of root tissue” value in assay [1] (setting [5]) was 19.6 cysts per g of root tissue. The “Average cysts per g of root tissue” value in assay [1] (Table 15, seed treated with whole cell broth, soybean P18A98X) is 56.3 cysts per g of root tissue. For the same molecule, in assay [1] (Table 25, dried formulation 0.04 units of enzyme activity per seed, liquid 2 fl oz per unit of seed, soybean 3230E3), the “Average cysts per g of root tissue” value is on record as 233.2 cysts per g of root tissue. Further, in assay [2] (Table 28, 40 μL of each treatment per well, fertilizer diluted to 3% v/v), the “Difference in Percent Death of Nematodes for 0 to 24 Hours” value is reported as 3%. In addition, the “difference in percent death over twenty-four hours relative to the combination treatment” value in assay [2] (single treatment vs Esterase B + 10-34-0 fertilizer combination) was −7%. In assay [3], the “% Comparison to Control (figure in parentheses)” value was −16%, the “% Comparison to Control” value is on record as “reduced SCN reproduction” and the “Average cysts per g of root tissue” value is on record as 117.3 cysts per g of root tissue. For the same molecule, in assay [3] (listed as Esterase B free enzyme (SEQ ID NO: 89)), the “% Comparison to Control” value stood at 84%. Moreover, in assay [4] (setting [7]), the “Larva Stage I” value is given as 3, the “Larva Stage II” value amounted to 4, the “Larva Stage III” value came to 14 and the “Larva Stage IV” value is 10. The “Dead Larva” value in assay [4] (Table 50, esterases, number of individuals of n = 32, DSO bioassay, dose per treatment in U/mL Diet) is 1. Moreover, in assay [4] (text to Table 50, esterases, n = 32), the “individuals with delayed development” value worked out at 67%.
